US6774222, “Molecular computing elements, gates and flip-flops” (The United States of America as represented by the …)

B1: overlap 7 Fis sites (dsDNA)
DNA 1: AGGCTTTTGCTCAAAGTTTAAACTTTGAGCAAAAGCCT
DNA 2: B1 DNA 1
B2: separated 23 Fis sites (dsDNA)
DNA 1: GGAATTCTTTGCTCAAAATTTGATCAGGATCCTGATCAAATTTTGAGCAAAGAATTCC
DNA 2: B2 DNA 1
B3: overlap 11 Fis sites (dsDNA)
DNA 1: TATTCTTTGCTCAAAATTTGATCAAATTTTGAGCAAAGAATA
DNA 2: B3 DNA 1

Tests used:
[1] = molecular target: T1, Fis (Factor for Inversion Stimulation) (Escherichia coli, UniProt P0A6R3 P0A6R3:1-98); experiment: EMSA; single shift only, no doubly shifted band up to 2200 nM Fis with 1 nM DNA; sites bound mutually exclusively; settings: chain copies: 2 (dimer, stated); label: 5' biotin; self-complementary linear duplex
Description: (§1) FIG. 9 illustrates the mobility shift experiments for 11 and 7 base pair overlapping and 23 base pair separated Fis sites. Each lane contains increasing concentrations of Fis protein, beginning with no Fis, Fis diluted 1 to 64, etc. The 1:1 dilution is at 2200 nM Fis. This concentration was chosen intentionally so that with 1 nM DNA per reaction, the protein/DNA ratio is 2-fold higher than that needed to strongly shift DNA containing the 8.9 bit wild-type hin distal Fis site (Bruist et al. (1987) *Genes Dev.* 1: 762–772). Marker lanes (M) contain 10 ng of biotinylated […] hinfI digested DNA standards (Life Technologies, Inc.). Sizes are indicated in bp. The lowest band in most lanes of the figure is single-stranded oligonucleotide DNA. In the "Separated 23" experiment, at high concentrations, Fis proteins are apparently able to capture the single-stranded DNA when it has folded into a hairpin. This produces a faint band near the 100 bp marker.

[2] = molecular target: T1, Fis (Factor for Inversion Stimulation); experiment: EMSA; double shift; both sites bound simultaneously; up to 2200 nM Fis, 1 nM DNA; settings: chain copies: 2 (dimer, stated); label: 5' biotin; self-complementary linear duplex
Description: as §1

T1 sequence (P0A6R3 whole entry, one chain of several): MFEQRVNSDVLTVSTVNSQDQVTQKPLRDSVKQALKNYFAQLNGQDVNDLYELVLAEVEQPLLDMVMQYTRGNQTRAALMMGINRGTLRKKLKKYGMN

| Binder | binding result [1] | binding result [2] |
| --- | --- | --- |
| B1 | binds |  |
| B2 |  | binds |
| B3 | binds |  |
